Reference: US20170321240

Experiments:
[1] = tested on: Left TALEN Slc35c1 (synthetic construct (Xanthomonas AvrBs3 scaffold)); test: cell_activity; settings: TALEN pair with right TALEN, 19-bp spacer; T7E1 assay 72 h, CHO cells
[2] = tested on: Right TALEN Slc35c1 (synthetic construct (Xanthomonas AvrBs3 scaffold)); test: cell_activity; settings: TALEN pair with left TALEN, 19-bp spacer; T7E1 assay 72 h, CHO cells

Substance | activity (% gene modification) [1] | activity (% gene modification) [2]
Slc35c1 exon 1 left TALEN half-site | 7.3 | –
Slc35c1 exon 1 right TALEN half-site | – | 7.3
